Publication PMC8703697

Assays:
[1] = target: human thrombin (FIIa) (human) (UniProt P00734)
[2] = target: human factor XIIa (human) (UniProt P00748)
[3] = target: human thrombin (FIIa) (human) (UniProt P00734); remark: listed apart in the source
[4] = target: human plasma Kallikrein (human) (UniProt P03952)
human factor XIa (human) = human factor XIa (human) (UniProt P03951)
[5] = target: human thrombin (FIIa) (human) (UniProt P00734); remark: listed apart in the source
[6] = target: human thrombin (FIIa) (human) (UniProt P00734); remark: listed apart in the source

UniProt P00748, sequence (P00748 20-372, chain 1 of 2): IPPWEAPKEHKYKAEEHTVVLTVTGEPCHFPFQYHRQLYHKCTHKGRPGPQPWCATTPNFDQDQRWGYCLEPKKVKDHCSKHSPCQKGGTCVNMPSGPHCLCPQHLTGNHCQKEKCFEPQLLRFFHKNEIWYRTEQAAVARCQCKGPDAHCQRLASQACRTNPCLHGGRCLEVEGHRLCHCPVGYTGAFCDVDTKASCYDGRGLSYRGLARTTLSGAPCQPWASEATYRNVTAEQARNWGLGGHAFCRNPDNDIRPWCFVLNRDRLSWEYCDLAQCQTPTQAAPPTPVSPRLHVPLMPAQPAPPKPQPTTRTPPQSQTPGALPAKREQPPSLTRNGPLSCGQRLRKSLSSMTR
UniProt P00748, sequence (P00748 373-615, chain 2 of 2): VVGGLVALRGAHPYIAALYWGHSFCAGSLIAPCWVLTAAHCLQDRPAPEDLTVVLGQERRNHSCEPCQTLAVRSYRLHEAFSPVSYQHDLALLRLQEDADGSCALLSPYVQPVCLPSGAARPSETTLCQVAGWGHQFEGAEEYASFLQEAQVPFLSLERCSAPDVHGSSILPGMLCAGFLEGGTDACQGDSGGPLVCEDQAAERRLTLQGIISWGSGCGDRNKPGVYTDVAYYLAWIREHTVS
UniProt P03952, sequence (P03952 20-390, chain 1 of 2): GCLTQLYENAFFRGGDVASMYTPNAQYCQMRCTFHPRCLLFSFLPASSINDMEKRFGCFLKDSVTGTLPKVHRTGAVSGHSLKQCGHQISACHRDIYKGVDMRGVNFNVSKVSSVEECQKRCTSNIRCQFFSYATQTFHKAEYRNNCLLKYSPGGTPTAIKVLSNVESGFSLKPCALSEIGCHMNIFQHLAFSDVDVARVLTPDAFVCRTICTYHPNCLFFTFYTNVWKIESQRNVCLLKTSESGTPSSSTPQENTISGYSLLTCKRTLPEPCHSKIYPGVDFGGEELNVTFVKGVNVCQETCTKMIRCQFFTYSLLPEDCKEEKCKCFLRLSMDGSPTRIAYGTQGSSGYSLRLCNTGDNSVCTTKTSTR
UniProt P03952, sequence (P03952 391-638, chain 2 of 2): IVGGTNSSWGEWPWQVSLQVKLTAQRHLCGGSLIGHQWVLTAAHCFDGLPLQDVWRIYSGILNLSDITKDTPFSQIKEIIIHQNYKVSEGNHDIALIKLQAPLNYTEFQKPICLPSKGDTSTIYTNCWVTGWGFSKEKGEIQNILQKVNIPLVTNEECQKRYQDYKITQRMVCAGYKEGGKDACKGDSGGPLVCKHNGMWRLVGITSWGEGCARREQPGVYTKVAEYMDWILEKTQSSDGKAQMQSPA
UniProt P03951, sequence (P03951 19-387, chain 1 of 2): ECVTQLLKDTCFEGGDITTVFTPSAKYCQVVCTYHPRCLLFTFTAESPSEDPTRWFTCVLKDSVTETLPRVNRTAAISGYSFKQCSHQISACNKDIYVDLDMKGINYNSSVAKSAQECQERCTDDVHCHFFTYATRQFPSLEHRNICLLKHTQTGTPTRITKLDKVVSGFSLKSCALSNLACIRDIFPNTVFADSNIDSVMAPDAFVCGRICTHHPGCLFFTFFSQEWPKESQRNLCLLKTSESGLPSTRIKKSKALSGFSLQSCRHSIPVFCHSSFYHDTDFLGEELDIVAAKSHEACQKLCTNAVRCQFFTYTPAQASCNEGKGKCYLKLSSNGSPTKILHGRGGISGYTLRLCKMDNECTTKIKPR
UniProt P03951, sequence (P03951 388-625, chain 2 of 2): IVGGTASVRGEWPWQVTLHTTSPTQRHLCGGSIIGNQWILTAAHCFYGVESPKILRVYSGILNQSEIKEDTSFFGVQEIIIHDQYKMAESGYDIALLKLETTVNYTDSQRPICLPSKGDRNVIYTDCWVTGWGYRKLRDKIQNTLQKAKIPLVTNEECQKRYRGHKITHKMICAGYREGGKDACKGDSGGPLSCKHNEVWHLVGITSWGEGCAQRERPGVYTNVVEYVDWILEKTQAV

recombinant Dromaserpin (rDromaserpin) (natural protein)
reduction of thrombin-induced aggregation of washed human platelets; 10 µM rDromaserpin pre-incubated 10 min at 37 °C with thrombin [1]: 88.2%
inhibition of FXIIa (15 nM) activity on S-2302 with 1 µM and 5 µM rDromaserpin (no effect at 1 µM, ~29% at 5 µM) [2]: 29%
decrease of thrombin (2U) catalytic activity on S-2238 with 1 µM and 5 µM rDromaserpin (87% and 89%), 15 min pre-incubation at 37 °C [3]: 89%
decrease of Kallikrein (10 nM) catalytic activity on S-2302 with 1 µM and 5 µM rDromaserpin (~30% and ~76%) [4]: 76%
inhibition of FXIa (3.7 nM) activity (BIOPHEN kit) with 1 µM and 5 µM rDromaserpin (no effect at 1 µM, ~48% at 5 µM) (human factor XIa (human)): 48%
residual activity of thrombin (2U) on the chromogenic substrate S-2238 with rDromaserpin from 0.02 to 1 µM; IC50 [5]: 160 nM
residual activity of thrombin (2U) with 0.2 µM rDromaserpin and heparin from 0 to 7.2 µM (48.11% without heparin, 12.5% at 2.4 µM heparin, less acceleration from 5.6 µM) [6]: 48.1%
